Here are results for 2 molecules from patent US20020119153A1 (University of Texas, published 2002).

Assay [1] has as its target T1, recombinant human VEGF165 (human, UniProt P15692 27-191).
T1 construct: mature; Secreted VEGF is described as an obligate dimer; also called free VEGF; VEGF-biotin
In words: ELISA on VEGF coated wells, HRP-labelled anti-mouse IgG and OPD. A general note: In an ELISA, binding on a coated surface is turned into a signal by an enzyme label.

Assay [2] addresses T1, recombinant human VEGF165. The assay can be described thus: capture ELISA: biotinylated VEGF titrated onto wells coated with the antibody, peroxidase-avidin; concentration giving 50% maximal binding.
Assay [3] addresses T1, recombinant human VEGF165. The assay can be described thus: printed as 'Affinity'; estimated by ELISA and surface plasmon resonance analysis.
The next assay deals with T2, mouse VEGF (mouse, UniProt Q00731-2 27-190, limits assumed).
T2 construct: In indirect ELISA (source not described) and in mouse 3LL tumor sections
T2 sequence (looked up): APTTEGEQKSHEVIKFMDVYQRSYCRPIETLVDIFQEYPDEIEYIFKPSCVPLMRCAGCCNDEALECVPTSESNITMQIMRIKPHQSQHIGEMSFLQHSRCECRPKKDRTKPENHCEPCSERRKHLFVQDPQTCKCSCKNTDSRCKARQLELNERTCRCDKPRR
The assay can be described thus: indirect ELISA.

For a further assay, the target named is T3, VEGF:sFlk-1 complex (human; mouse, UniProt P15692 27-191; P35918 20-762, limits assumed, biotinylated).
T3 construct: mature;extracellular domain; also called VEGF:receptor complex
T3 sequence (P35918 20-762 limits assumed, one chain of several): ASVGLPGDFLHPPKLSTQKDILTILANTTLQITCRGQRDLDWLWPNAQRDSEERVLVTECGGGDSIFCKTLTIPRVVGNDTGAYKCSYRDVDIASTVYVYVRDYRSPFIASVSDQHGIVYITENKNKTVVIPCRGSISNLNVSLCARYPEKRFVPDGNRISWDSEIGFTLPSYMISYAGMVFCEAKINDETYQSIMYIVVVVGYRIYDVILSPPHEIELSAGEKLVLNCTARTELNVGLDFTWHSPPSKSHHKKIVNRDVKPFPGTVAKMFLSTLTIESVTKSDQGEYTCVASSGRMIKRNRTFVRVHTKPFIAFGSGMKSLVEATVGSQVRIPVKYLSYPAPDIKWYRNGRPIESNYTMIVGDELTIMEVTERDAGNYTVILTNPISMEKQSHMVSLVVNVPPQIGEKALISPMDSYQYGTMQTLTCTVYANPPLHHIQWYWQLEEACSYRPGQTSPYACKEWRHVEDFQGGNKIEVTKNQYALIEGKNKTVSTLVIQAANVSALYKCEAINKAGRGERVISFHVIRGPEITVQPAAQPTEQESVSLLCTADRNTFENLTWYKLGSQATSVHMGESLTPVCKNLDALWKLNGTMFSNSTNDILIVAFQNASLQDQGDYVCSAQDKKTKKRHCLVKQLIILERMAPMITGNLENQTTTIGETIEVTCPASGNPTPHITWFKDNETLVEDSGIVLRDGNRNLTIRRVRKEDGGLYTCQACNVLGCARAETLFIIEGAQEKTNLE
The assay can be described thus: capture ELISA: biotinylated sFlk-1 complexed with VEGF titrated onto wells coated with the antibody; concentration giving 50% maximal binding.

B1: 2C3-GUS conjugate (other)
VH: KLQVQLQESGPELVKPGASVKMSCKASGYTFTSYVFHWVKQKPGQGLEWIGYINPYNDVTKYNEKFKGKATLTSDKSSSTAYMELSSLTSEDSAVYYCASYYGSSYGYYAMDDWGQGTTVTVSSGGG
VL: DIQLTQSPASLSVSAGEKVTMSCKSSQSLLNSGNQKNYLAWYQQKPGQPPKLLIHGASTRESGVPDRFTGSGSGTDFTLTISSVQAEDLAVYYCQNDYSYPLTFGAGTKLELKRL
chain: MLRPVETPTREIKKLDGLWAFSLDRENCGIDQRWWESALQESRAIAVPGSFNDQFADADIRNYAGNVWYQREVFIPKGWAGQRIVLRFDAVTHYGKVWVNNQEVMEHQGGYTPFEADVTPYVIAGKSVRITVCVNNELNWQTIPPGMVITDENGKKKQSYFHDFFNYAGIHRSVMLYTTPNTWVDDITVVTHVAQDCNHASVDWQVVANGDVSVELRDADQQVVATGQGTSGTLQVVNPHLWQPGEGYLYELCVTAKSQTECDIYPLRVGIRSVAVKGEQFLINHKPFYFTGFGRHEDADLRGKGFDNVLMVHDHALMDWIGANSYRTSHYPYAEEMLDWADEHGIVVIDETAAVGFNLSLGIGFEAGNKPKELYSEEAVNGETQQAHLQAIKELIARDKNHPSVVMWSIANEPDTRPQGAREYFAPLAEATRKLDPTRPITCVNVMFCDAHTDTISDLFDVLCLNRYYGWYVQSGDLETAEKVLEKELLAWQEKLHQPIIITEYGVDTLAGLHSMYTDMWSEEYQCAWLDMYHRVFDRVSAVVGEQVWNFADFATSQGILRVGGNKKGIFTRDRKPKSAAFLLQKRWTGMNFGEKPQQGGKQ
modifications: SATA-modified, deacetylated; SMCC-modified IgG, linked by thioether to SATA-modified GUS
notes: Chemical conjugate of 2C3 IgG (mouse IgG2a,k) and 6-His GUS; GUS runs as a tetramer of about 300 kDa on gel filtration; not shown: N-terminal 6x histidine tag encoded by vector H6pQE60
By EC50 is commonly meant the concentration that produces a half-maximal response. On to B1, for which the EC50 in assay [1] came out at 0.1 nM.

B2: monoclonal antibody 2C3 (ATCC PTA 1595) (antibody, V domains shown)
VH: QVQLQESGPELVKPGASVKMSCKASGYTFTSYVFHWVKQKPGQGLEWIGYINPYNDVTKYNEKFKGKATLTSDKSSSTAYMELSSLTSEDSAVYYCASYYGSSYGYYAMDDWGQGTTVTVSS
VL: DIQLTQSPASLSVSAGEKVTMSCKSSQSLLNSGNQKNYLAWYQQKPGQPPKLLIHGASTRESGVPDRFTGSGSGTDFTLTISSVQAEDLAVYYCQNDYSYPLTFGAGTKLELKR
notes: also called 2C3 IgG
As usually defined, the Kd is the concentration at which binding is half-saturated. For the molecule B2, the 50% effective concentration (EC50) in assay [2] is 1 nM; in the assay with VEGF:sFlk-1 complex, 150 nM. Moreover, in assay [3], the Kd is 1 nM. In the assay with mouse VEGF, the binding result is reported as “no binding”.
